Experimental data reported in patent publication CN113372440A.

Key:
[1] = biological target: gH/gL glycoprotein on EBV virions produced by AKATA cells (Epstein-Barr virus) (UniProt P03231); experiment: cell-based or functional assay
[2] = biological target: gLgH蛋白 (recombinant single-chain EBV M81 gL ectodomain - linker - gH ectodomain - 6xHis) (Epstein-Barr virus (M81 strain, KF373730.1)); experiment: ELISA, gLgH coated at 2 μg/mL, antibody titrated from 1 μg/mL (Fig. 2)

Work on AMMO1 (针对EB病毒gLgH糖蛋白的人源中和单抗) (antibody) yielded an IC50 in the epithelial cell infection model (HNE1 cells, GFP-EBV, inhibition of GFP-positive cells) [1] of 0.0828 µg/mL and an EC50 [2] of 0.0255 µg/mL.
